In patent US20040197306A1 (SCHERING, published 2004):

What was measured:
Assay in all cases: FACS, FLAG-tagged ligand supernatant on Baf/3 cells with chimeric receptor, anti-FLAG M2 detection
[1] = biological target: T1, mouse IL-17RA extracellular domain fused to transmembrane and intracellular domains of murine GCSFR, on Baf/3 … (mouse, UniProt Q60943 32-322; P40223 627-837, limits assumed)
T1 construct: extracellular domain;domain: transmembrane and intracellular domains; Chimeric receptor stably expressed on Baf/3 cells; also called MuIL-17RX-MuGCSFR (X = A)
Procedure: (§1) FACS analysis was used to determine specific binding of the various ligands to the various receptors. Baf/3 or Baf/3 mouse IL17RX-mouse GCSFR cells were incubated with ligand containing cell supernatants for one hour on ice. The cells were then washed once in FACS buffer and resuspended in 10 μg/ml ANTI-FLAG® M2 antibody (Sigma, St. Louis, Mo.) for one hour on ice. Cells were washed once in FACS buffer and resuspended in 10 μl/ml anti-mouse IgG-PE (Jackson ImmunoResearch, West Grove, Pa.) for 30 minutes on ice. Cells were washed once in FACS buffer and resuspended in FACS buffer and 1 μl/ml propidium iodide (Roche Applied Science, Indianapolis, Ind.) and analyzed on a FACS Calibur (Becton Dickinson, San Jose, Calif.). The chimeric receptor cell based assay was used to visualize the binding of each of the IL-17 family ligands to the receptors by FACS.

[2] = biological target: T2, mouse IL-17RD (DCRS8) extracellular domain fused to transmembrane and intracellular domains of murine GCSFR, … (mouse, UniProt Q8JZL1 17-299; P40223 627-837, limits assumed)
T2 construct: extracellular domain;domain: transmembrane and intracellular domains; Chimeric receptor stably expressed on Baf/3 cells; also called MuIL-17RX-MuGCSFR (X = D)
T2 sequence (looked up): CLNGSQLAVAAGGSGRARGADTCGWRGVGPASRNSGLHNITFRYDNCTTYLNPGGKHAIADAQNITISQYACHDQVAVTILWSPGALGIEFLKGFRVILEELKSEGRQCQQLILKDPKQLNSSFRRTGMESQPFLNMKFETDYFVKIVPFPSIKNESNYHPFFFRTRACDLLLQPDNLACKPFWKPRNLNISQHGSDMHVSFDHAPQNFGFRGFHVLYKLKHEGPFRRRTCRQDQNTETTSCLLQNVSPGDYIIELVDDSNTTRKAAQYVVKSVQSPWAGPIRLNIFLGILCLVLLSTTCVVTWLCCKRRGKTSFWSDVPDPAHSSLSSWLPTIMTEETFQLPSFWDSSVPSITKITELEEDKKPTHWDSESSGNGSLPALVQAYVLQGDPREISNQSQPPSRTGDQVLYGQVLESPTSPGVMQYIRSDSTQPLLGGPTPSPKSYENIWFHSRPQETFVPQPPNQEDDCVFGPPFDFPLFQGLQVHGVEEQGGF
Procedure: as §1

[3] = biological target: T3, mouse IL-17RC (DCRS7) extracellular domain fused to transmembrane and intracellular domains of murine GCSFR, … (mouse, UniProt P40223 627-837, limits assumed)
T3 construct: domain: transmembrane and intracellular domains; Chimeric receptor stably expressed on Baf/3 cells; also called MuIL-17RX-MuGCSFR (X = C)
T3 sequence: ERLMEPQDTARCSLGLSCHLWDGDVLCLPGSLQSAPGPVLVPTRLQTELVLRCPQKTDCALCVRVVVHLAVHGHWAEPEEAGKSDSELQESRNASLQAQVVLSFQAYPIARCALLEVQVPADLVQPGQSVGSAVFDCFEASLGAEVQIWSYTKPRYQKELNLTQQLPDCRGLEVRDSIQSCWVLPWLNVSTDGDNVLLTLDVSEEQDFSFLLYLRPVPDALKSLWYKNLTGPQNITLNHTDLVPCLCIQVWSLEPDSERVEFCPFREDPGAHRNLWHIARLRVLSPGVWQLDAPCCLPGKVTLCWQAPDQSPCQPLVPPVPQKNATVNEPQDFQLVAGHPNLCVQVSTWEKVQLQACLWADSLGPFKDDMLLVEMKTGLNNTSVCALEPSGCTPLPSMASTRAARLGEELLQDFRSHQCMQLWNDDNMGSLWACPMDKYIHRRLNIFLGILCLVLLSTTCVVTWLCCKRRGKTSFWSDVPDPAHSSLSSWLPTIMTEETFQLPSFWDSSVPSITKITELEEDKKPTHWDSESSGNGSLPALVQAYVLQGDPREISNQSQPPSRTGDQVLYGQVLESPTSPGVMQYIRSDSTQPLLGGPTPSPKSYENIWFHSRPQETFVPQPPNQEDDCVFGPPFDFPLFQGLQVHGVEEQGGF
Procedure: as §1

Measured: binding result

B1: FLAG-tagged IL-17C (ligand)
chain: HHDPSLRGHPHSHGTPHCYSAEELPLGQAPPHLLARGAKWGQALPVALVSSLEAASHRGRHERPSATTQCPVLRPEEVLEADTHQRSISPWRYRVDTDEDRYPQKLAFAECLCRGCIDARTGRETAALNSVRLLQSLLVLRRRPCSRDGSGLPTPGAFAFHTEFIHVPVGCTCVLPRSV
notes: Used as supernatant of transfected 293T cells; also called IL-71; not shown: FLAG peptide tag at the N-terminus (after the pre-protrypsin leader)
no binding: all assays above
